This note sets out measurements from article PMC10302166, “Molecular basis and dual ligand regulation of tetrameric estrogen receptor α/14-3-3ζ protein complex” (The Journal of Biological Chemistry, 2023).

Where no end group is shown, it is not given here.

Test [1] has as its target ERα-pT594-strep (ERαLBD-F-strep phosphorylated in vitro by PKA) (human (from the printed UniProt entry), UniProt P03372 302-595, S305A | F591R | P592R, phosphothreonine at T594). In words: FP; 100 uM E2.
In test [2] the target is T1, ERα-Y537S/14-3-3ζ protein complex (human (from the printed UniProt entry) …, UniProt P03372 302-595; P63104 1-245, Y537S | F591R | P592R, phosphothreonine at T594). In words: FP; 100 uM E2.
T1 sequence (P63104 whole entry, stated change not applied, one chain of several): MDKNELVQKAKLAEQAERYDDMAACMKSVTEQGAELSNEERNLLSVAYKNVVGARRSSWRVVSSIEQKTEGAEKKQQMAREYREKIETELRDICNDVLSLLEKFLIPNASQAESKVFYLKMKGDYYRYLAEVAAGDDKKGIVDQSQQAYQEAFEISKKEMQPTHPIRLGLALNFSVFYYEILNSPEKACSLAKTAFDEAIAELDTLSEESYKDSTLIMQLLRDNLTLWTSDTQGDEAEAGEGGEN
Test [3] concerns the target T2, ERα-pT594-strep (ERαLBD-F-strep phosphorylated in vitro by PKA) (human (from the printed UniProt entry), UniProt P03372 302-595, S305A | F591R | P592R, phosphothreonine at T594).
T2 construct: also called ERα(PKA)-pT594-strep; phosphorylated ERα; source: E. coli NiCo21 (DE3), phosphorylated in vitro with His-PKA-strep and ATP, purified (Ni-NTA, Strep-Tactin, SEC); not shown: His tag, N-terminal, cleaved; SUMO, N-terminal, cleaved; strep-tag, C-terminal, kept
T2 sequence (looked up): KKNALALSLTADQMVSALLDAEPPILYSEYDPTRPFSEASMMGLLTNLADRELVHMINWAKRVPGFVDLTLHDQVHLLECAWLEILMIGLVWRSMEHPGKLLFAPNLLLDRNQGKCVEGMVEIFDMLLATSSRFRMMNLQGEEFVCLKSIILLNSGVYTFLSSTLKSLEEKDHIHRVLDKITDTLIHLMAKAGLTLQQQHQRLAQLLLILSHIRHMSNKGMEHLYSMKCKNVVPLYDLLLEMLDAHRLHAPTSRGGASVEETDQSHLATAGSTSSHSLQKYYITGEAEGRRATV
In words: fluorescence polarisation; as a10 but in the presence of 100 μM E2; apparent KD. Conditions: both partners purified. (In general: In fluorescence polarisation assays a small probe gives low polarisation when free and higher when bound to something large.)

In test [4] the target is T3, ERαLBD-F-strep (PKA-responsive, non-phosphorylated) (human (from the printed UniProt entry), UniProt P03372 302-595, S305A | F591R | P592R).
T3 construct: also called ERα-strep; ERα(PKA)-strep; source: E. coli NiCo21 (DE3), purified (Ni-NTA, SUMO cleavage, Strep-Tactin, SEC); not shown: His tag, N-terminal, cleaved; SUMO, N-terminal, cleaved; strep-tag, C-terminal, kept
T3 sequence (looked up): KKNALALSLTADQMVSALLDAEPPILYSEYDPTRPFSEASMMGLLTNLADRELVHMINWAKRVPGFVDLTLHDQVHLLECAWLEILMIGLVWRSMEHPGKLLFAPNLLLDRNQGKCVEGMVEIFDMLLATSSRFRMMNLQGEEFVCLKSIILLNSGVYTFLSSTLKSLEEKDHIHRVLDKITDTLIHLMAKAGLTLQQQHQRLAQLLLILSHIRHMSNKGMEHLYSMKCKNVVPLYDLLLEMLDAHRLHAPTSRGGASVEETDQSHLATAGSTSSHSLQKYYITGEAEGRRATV
Described as above. The note with it: both partners purified.

Test [5] deals with T4, ERα-Y537S LBD-F-strep (PKA-responsive), without 14-3-3ζ (human (from the printed UniProt entry), UniProt P03372 302-595, S305A | Y537S | F591R | P592R).
T4 construct: the methods list ERα(PKA)-strep and ERα(PKA)-pT594-strep 'for WT ERα and Y537S mutant'; also called apo ERα-Y537S
T4 sequence (looked up): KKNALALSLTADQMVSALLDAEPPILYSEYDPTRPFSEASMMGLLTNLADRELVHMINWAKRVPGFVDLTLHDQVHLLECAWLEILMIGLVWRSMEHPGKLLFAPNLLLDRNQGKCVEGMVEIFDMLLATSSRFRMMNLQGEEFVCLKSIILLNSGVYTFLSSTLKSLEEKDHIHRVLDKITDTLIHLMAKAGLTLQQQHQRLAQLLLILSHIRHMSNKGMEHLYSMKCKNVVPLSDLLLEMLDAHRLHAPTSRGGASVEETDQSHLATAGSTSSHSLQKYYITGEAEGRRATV
The description is as above. The note with it: both partners purified.

Test [6] concerns the target T1, ERα-Y537S/14-3-3ζ protein complex. In words: FP; DMSO.
Test [7] addresses T2, ERα-pT594-strep (ERαLBD-F-strep …). In words: fluorescence polarisation; fluorescence anisotropy; ERα or complex titrated (2-fold series from 40 μM ERα) to 20 nM fluorescein-labeled SRC1 peptide; DMSO control; 20 mM HEPES pH 7.5, 150 mM NaCl, 10 mM MgCl2, 0.1% Tween20, 0.1% BSA; room temperature; apparent KD (4PL fit). The note with it: both partners purified.
The target in test [8] is T3, ERαLBD-F-strep (PKA-responsive, …). The test is described as above. Conditions: both partners purified.
The target in test [9] is T4, ERα-Y537S LBD-F-strep (PKA-responsive), …. The test is described as above. Conditions: both partners purified.

In the case of LTERHKILHRLLQEGSPSD (also: fluorescein (FITC) label, position not given here) [fluorescein-labeled SRC-1 cofactor peptide (LXXLL motif of SRC-1/NCoA-1)], the Kd in test [1] worked out at 0.9 µM; in [2], 0.4 µM; in test [3] it was 1 µM; in [4] it was 1 µM; in [5] it was 0.8 µM; in test [6], 0.7 µM. The Kd in test [7] is around 20 µM; in test [8], around 20 µM; in test [9], 1.7 µM.
